Test results reported in publication PMC9185715.

Assays:
nsp12 (RdRp);nsp7;nsp8 [1] = target: T1, nsp12 (RdRp);nsp7;nsp8 (SARS-CoV-2;SARS-CoV-2;SARS-CoV-2, UniProt P0DTD1;P0DTD1;P0DTD1 4393-5324;3860-3942;3943-4140, ||); assay: EMSA; 10 mM MgCl2; details: protein: recombinant;recombinant;recombinant; tags: ;N-terminal His6 removed by TEV;; copies: 1;1;2; hairpin, blunt, no 5' overhang
nsp12 (RdRp);nsp7;nsp8 [2] = target: T1, nsp12 (RdRp);nsp7;nsp8; assay: EMSA; 10 mM MgCl2; broadened shifted bands; details: protein: recombinant;recombinant;recombinant; tags: ;N-terminal His6 removed by TEV;; copies: 1;1;2
nsp12 (RdRp);nsp7;nsp8 [3] = target: T1, nsp12 (RdRp);nsp7;nsp8; assay: EMSA; 2.4 uM protein; details: protein: recombinant;recombinant;recombinant; tags: ;N-terminal His6 removed by TEV;; copies: 1;1;2

Binder: CGCGUAGUUUUCUACGCG (structured_RNA) [CoV-RNA1 truncated]
- binding result (nsp12 (RdRp);nsp7;nsp8 [1]): no binding

Binder: UUUUCAUGCUACGCGUAGUUUUCUACGCG (structured_RNA) [CoV-RNA1]
- binding result (nsp12 (RdRp);nsp7;nsp8 [2]): binds

Binder: TTTTCATGCTACGCGTAGTTTTCTACGCG (structured_DNA) [CoV-DNA1]
- binding result (nsp12 (RdRp);nsp7;nsp8 [3]): no binding
